Assay results: the supplement of paper PMC7877785
± gives the uncertainty stated by the source.

Experiment: self-splicing fitness, log relative to wild type (ln ratio); higher = more splicing; Tetrahymena group I intron in knt gene, E. coli kanamycin selection, DiMSum; sequences stand for … in CUCUCU…GGAGGGAAAAGUUAUCAGGCAUGCACCUGGUAGCUAGUCUUUAAACCAAUAGAUUGCAUCGGUUUAAAAGGCAAGACCGUCAAAUUGCGGGAAAGGGGUCAACAGCCGUUCAGUACCAAGUCUCAGGGGAAACUUUGAGAUGGCCUUGCAAAGGGUAUGGUAAUAAGCUGACGGACAUGGUCCUAACCACGCAGCCAAGUCCUAAGUCAACAGAUCUUCUGUUGAUAUGGAUGCAGUUCACAGACUAAAUGUCGGUCGGGGAAGAUGUAUUCUUCUCAUAAGAUAUAGUCGGACCUCUCCUUAAUGGGAGCUAGCGGAUGAAGUGAUGCAACACUGGAGCCGCUGGGAACUAAUUUGUAUGCGAAAGUAUAUUGAUUAGUUUUGGAGUACUCGUGGUCG
Method in brief: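 DiMSum derived fitness as the error-weighted combination of fold changes across replicates, kanamycin versus no kanamycin, normalised to wild type. E. coli BL21(DE3) held the library, which randomised all eight P1ex-region intron nucleotides within the knt kanamycin-resistance gene on pET-22b(+). Six replicate transformations grew overnight at 37°C or 30°C on LB agar with or without 25 μg/mL kanamycin, also containing 100 μg/mL carbenicillin, 50 μM IPTG and 0.2% rhamnose, and pooled colonies were amplicon-sequenced on an Illumina HiSeq 2500.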

Row | Sequence | self-splicing fitness (ln) (30 °C) | self-splicing fitness (ln) (37 °C)
1 | AGAAAGCAAUAUUACGGGUG | -1.41 ± 0.089 | -1.36 ± 0.14
2 | UCUAAGCAAUAUUACGUAUA | -2.55 ± 0.17 | -1.45 ± 0.12
3 | AGACAGCAAUAUUACGCCGA | -2.06 ± 0.089 | -0.863 ± 0.094
4 | UCAUAGCAAUAUUACGGAGU | -3.88 ± 0.34 | -2.86 ± 0.25
5 | GGUAAGCAAUAUUACGCACA | -0.755 ± 0.12 | 0.101 ± 0.15
6 | CAGGAGCAAUAUUACGCGUG | -3.2 ± 0.16 | -2.42 ± 0.17
7 | GCCUAGCAAUAUUACGCGGU | -4.03 ± 0.28 | -3 ± 0.26
8 | UACGAGCAAUAUUACGUAGG | -3.41 ± 0.31 | -2.57 ± 0.28
9 | GCUUAGCAAUAUUACGGUUG | -3.95 ± 0.18 | -1.91 ± 0.12
10 | UGACAGCAAUAUUACGCAUC | -4 ± 0.27 | -1.28 ± 0.2
11 | AGAUAGCAAUAUUACGCCAA | -2.98 ± 0.38 | -3.38 ± 0.37
12 | UCCUAGCAAUAUUACGAAUC |  | -2.17 ± 0.29
13 | CUCCAGCAAUAUUACGACAA | -2.27 ± 0.23 | -2.29 ± 0.31
14 | AUAGAGCAAUAUUACGAUGC |  | -1.36 ± 0.32
15 | CUCAAGCAAUAUUACGAAUU | -4.18 ± 0.28 | -3.03 ± 0.29
16 | AUGAAGCAAUAUUACGGAUG | -0.705 ± 0.063 | 0.152 ± 0.076
17 | AAUGAGCAAUAUUACGCAGU | -2.51 ± 0.2 | -3.29 ± 0.31
18 | CUGUAGCAAUAUUACGAAAG | -1.61 ± 0.1 | -0.788 ± 0.14
19 | UCCCAGCAAUAUUACGACGC | -2.81 ± 0.19 | -0.519 ± 0.23
20 | UAGGAGCAAUAUUACGUAUA | -2.34 ± 0.21 | -0.936 ± 0.17
21 | UGGCAGCAAUAUUACGGGGC | -3.67 ± 0.47 | -2.18 ± 0.4
22 | AGUUAGCAAUAUUACGCUGG | -3.07 ± 0.22 | 
23 | CGCAAGCAAUAUUACGGUCC | -1.07 ± 0.076 | -0.628 ± 0.12
24 | UAAGAGCAAUAUUACGGUGG | -4.17 ± 0.33 | -2.36 ± 0.26
25 | GAGCAGCAAUAUUACGGAUC | -0.51 ± 0.12 | -0.724 ± 0.12

Row | Sequence | self-splicing fitness (ln) (30 °C) | self-splicing fitness (ln) (37 °C)
26 | GACCAGCAAUAUUACGCAGA | -1.57 ± 0.11 | -0.378 ± 0.093
27 | GAGGAGCAAUAUUACGUAGU | -2.29 ± 0.19 | -2.19 ± 0.3
28 | CCAGAGCAAUAUUACGUAAA | -2.75 ± 0.2 | -1.29 ± 0.3
29 | GGCUAGCAAUAUUACGGCUC | -3.26 ± 0.3 | 
30 | AUACAGCAAUAUUACGAUGG | -3.04 ± 0.18 | -2.35 ± 0.23
31 | CCACAGCAAUAUUACGGUCU | -3.44 ± 0.11 | -1.87 ± 0.12
32 | AUCGAGCAAUAUUACGCUAG | -4.43 ± 0.46 | -2.64 ± 0.33
33 | ACGUAGCAAUAUUACGCACC | -1.18 ± 0.11 | -0.224 ± 0.16
34 | UUGUAGCAAUAUUACGACCA | -0.463 ± 0.16 | -0.51 ± 0.17
35 | AGCCAGCAAUAUUACGCUAC | -2.52 ± 0.18 | -0.749 ± 0.17
36 | CCUUAGCAAUAUUACGUUUC | -1.94 ± 0.18 | -1.11 ± 0.46
37 | UUAUAGCAAUAUUACGUUCA | -0.931 ± 0.15 | 0.00672 ± 0.15
38 | CCUAAGCAAUAUUACGGUCC |  | -2.28 ± 0.45
39 | GCUUAGCAAUAUUACGGAUG | -1.71 ± 0.14 | -1.05 ± 0.13
40 | CGAAAGCAAUAUUACGCCAU | -3.31 ± 0.45 | -2.78 ± 0.43
41 | UUUCAGCAAUAUUACGAUUC |  | -1.37 ± 0.41
42 | AAGCAGCAAUAUUACGGAGG | -3.79 ± 0.19 | -2.53 ± 0.21
43 | GAUUAGCAAUAUUACGAUAA | -0.956 ± 0.12 | 0.0487 ± 0.15
44 | UUUAAGCAAUAUUACGAGGG | -2.32 ± 0.19 | -1.57 ± 0.23
45 | CCUUAGCAAUAUUACGGAUG | -1.72 ± 0.064 | -0.271 ± 0.08
46 | AAAAAGCAAUAUUACGGUCC | -0.603 ± 0.084 | 0.0637 ± 0.11
47 | AAAUAGCAAUAUUACGCGGC |  | -2.2 ± 0.42
48 | AGAAAGCAAUAUUACGAAAU | -1.52 ± 0.1 | -1.91 ± 0.15
49 | GUUAAGCAAUAUUACGCUGA | -2.98 ± 0.22 | -1.4 ± 0.2
50 | CAGAAGCAAUAUUACGAAGU | -3.9 ± 0.37 | -2.48 ± 0.26

Row | Sequence | self-splicing fitness (ln) (30 °C) | self-splicing fitness (ln) (37 °C)
51 | CGUAAGCAAUAUUACGAAGC | -2.95 ± 0.23 | -2.73 ± 0.26
52 | CGAGAGCAAUAUUACGUGAG | -1.51 ± 0.18 | -1.75 ± 0.48
53 | ACAGAGCAAUAUUACGAAUU | -4.27 ± 0.33 | -1.57 ± 0.2
54 | GUCUAGCAAUAUUACGAAAA | -2.3 ± 0.26 | -1.26 ± 0.22
55 | CCUGAGCAAUAUUACGAAUA | -2.69 ± 0.38 | -1.35 ± 0.21
56 | GGAAAGCAAUAUUACGAAUA | -2.36 ± 0.22 | -1.19 ± 0.19
57 | CGCUAGCAAUAUUACGUCAU | -3.97 ± 0.35 | -1.25 ± 0.19
58 | AUGCAGCAAUAUUACGACCU | 0.132 ± 0.082 | 0.168 ± 0.087
59 | CCAGAGCAAUAUUACGACCU | -2.54 ± 0.23 | -3.29 ± 0.39
60 | UCGCAGCAAUAUUACGUAAU | -3.39 ± 0.15 | -2.19 ± 0.21
61 | GCAGAGCAAUAUUACGGAGC | -2.89 ± 0.28 | -2.84 ± 0.28
62 | GCUCAGCAAUAUUACGCCUG | -2.66 ± 0.26 | -2.42 ± 0.32
63 | GAACAGCAAUAUUACGCGGU | -3.6 ± 0.19 | -2.82 ± 0.21
64 | GACAAGCAAUAUUACGGUUG | -2.3 ± 0.087 | -1.15 ± 0.11
65 | AGUCAGCAAUAUUACGGGCC | -2.98 ± 0.28 | -2.4 ± 0.35
66 | CCAAAGCAAUAUUACGGUCG | -0.306 ± 0.066 | -0.674 ± 0.077
67 | ACUAAGCAAUAUUACGAAGU | -3.81 ± 0.38 | -2.1 ± 0.35
68 | ACGUAGCAAUAUUACGACUU | -0.145 ± 0.099 | 0.593 ± 0.13
69 | AAGAAGCAAUAUUACGAGCA | -1.21 ± 0.12 | -0.225 ± 0.1
70 | UGUGAGCAAUAUUACGGUGC | -3.57 ± 0.25 | -1.77 ± 0.21
71 | GCAGAGCAAUAUUACGCACG | -4.51 ± 0.42 | -2.05 ± 0.23
72 | CCCUAGCAAUAUUACGUACA | -2.75 ± 0.19 | -2.87 ± 0.22
73 | CUACAGCAAUAUUACGCCCG | 0.0629 ± 0.15 | -0.112 ± 0.14
74 | GAUAAGCAAUAUUACGCGAC | -1.41 ± 0.14 | -1.54 ± 0.23
75 | ACCGAGCAAUAUUACGUCCU | -1.71 ± 0.1 | -0.0861 ± 0.11

Row | Sequence | self-splicing fitness (ln) (30 °C) | self-splicing fitness (ln) (37 °C)
76 | CUGCAGCAAUAUUACGCGGC |  | -2.63 ± 0.34
77 | GACAAGCAAUAUUACGAAUU | -1.56 ± 0.063 | -1.47 ± 0.099
78 | GCGGAGCAAUAUUACGGAAG |  | -2.11 ± 0.36
79 | ACUCAGCAAUAUUACGAUAC | -0.894 ± 0.13 | -0.656 ± 0.19
80 | GCUAAGCAAUAUUACGUAUU | -1.16 ± 0.079 | -1.02 ± 0.11
81 | GGCUAGCAAUAUUACGGCGU | -0.171 ± 0.086 | -0.201 ± 0.094
82 | CGCUAGCAAUAUUACGGCUA | -1.91 ± 0.31 | 
83 | CCUUAGCAAUAUUACGGCCA | -3.46 ± 0.41 | -1.69 ± 0.18
84 | UAACAGCAAUAUUACGGAGC |  | -2.58 ± 0.29
85 | AUUCAGCAAUAUUACGGAUA | -1.72 ± 0.17 | -1.17 ± 0.14
86 | AACCAGCAAUAUUACGAAAA | -1.54 ± 0.099 | -1.3 ± 0.1
87 | CGGUAGCAAUAUUACGGGCU | -3.22 ± 0.13 | -1.82 ± 0.14
88 | UUUCAGCAAUAUUACGUACA | -0.836 ± 0.11 | -0.465 ± 0.11
89 | ACCAAGCAAUAUUACGUCCG | -1.19 ± 0.072 | -1.19 ± 0.11
90 | ACCAAGCAAUAUUACGGGAC | -4.08 ± 0.14 | -2.05 ± 0.12
91 | CCUGAGCAAUAUUACGCCUG | -3.03 ± 0.26 | -2.47 ± 0.25
92 | AUUUAGCAAUAUUACGCGUG | -1.2 ± 0.14 | -0.97 ± 0.14
93 | UUAUAGCAAUAUUACGCCCA | -1.57 ± 0.22 | -0.787 ± 0.26
94 | GUUCAGCAAUAUUACGAGUC | -1.32 ± 0.15 | -0.628 ± 0.17
95 | GAUUAGCAAUAUUACGUUAU | -3.04 ± 0.21 | -2.51 ± 0.18
96 | UGUAAGCAAUAUUACGCGUG | -0.994 ± 0.066 | 0.0779 ± 0.079
97 | AGGUAGCAAUAUUACGCUGC | -3.88 ± 0.042 | -2.79 ± 0.054
98 | GAUAAGCAAUAUUACGUGUC | -2.29 ± 0.21 | -2.5 ± 0.31
